Common to all, as to type: biochemical
Data set [1] is described as follows: Luminescence at 1 mM D/L-luciferin (Table 11). The following applies: 1 mM substrate, 1 mM ATP. The source says:
(§1) Tables 10 and 11 include representative results of kinetic analysis of the thermostable variants with D/L luciferin, CS0333, and CS0280. […] MK0135 and MK0137 have amino acid substitutions that improve thermostability relative to MK0133 and MK0134, respectively, while retaining activity on the luciferin analogs CS0333 and CS0280.

The nature of data set [2]: Kinetic analysis of thermostable variants with CS0333 (Tables 13, 14). The following applies: 2 mM ATP. The source says: (§2) Tables 13 and 14 include representative results of kinetic analysis of the thermostable variants with D/L luciferin, CS0333, and CS0280. The panel of enzyme variants highlight amino acid substitutions that further improve upon MK0137 in maximum luminescence (Vmax) or Km in different buffers with the different substrates tested (D/L-luciferin, CS0333, and CS0280). In particular, enzyme variants MK0151 and MK153 show improvements relative to MK0137 across multiple buffers with multiple substrates.

Data set [3] can be described thus: Luminescence at 1 mM CS0333 (Table 11). To be noted: 1 mM substrate, 1 mM ATP.
Text: as §1

The nature of data set [4]: Kinetic analysis of thermostable variants with CS0280 (Tables 13, 14). The following applies: 2 mM ATP.
Text: as §2

Data set [5] is described as follows: Luminescence at 1 mM CS0280 (Table 11). The following applies: 1 mM substrate, 1 mM ATP.
Text: as §1

Data set [6] in a line: Kinetic analysis of thermostable variants with D/L-luciferin (Tables 13, 14). The following applies: 2 mM ATP.
Text: as §2

The Km is the substrate concentration at which the rate is half of its maximum.

B1: MK0156: SEQ ID NO: 121; H244W+S193A+N228D+L305F+S306P+I109V+C38R+F55I+Y108F+A316W+Y339M+T342S+V348I+C257R+T289S+S313T+K353R (protein)
chain: MADKNILYGPEPFYPLEDGTAGEQMFDALSRYAAIPGRIALTNAHTKENVLYEEILKLSCRLAESFKKYGLKQNDTIAVCSENSLQFFLPVIASLYLGIIVAPVNDKFVERELIHSLGIVKPRIVFCSKNTFQKVLNVKSKLKSIETIIILDLNEDLGGYQCLNNFISQNSDSNLDVKKFKPYSFNRDDQVAAIMFSSGTTGLPKGVMLTHKNIVARFSIAKDPTFGDAINPTSAILTVIPFHWGFGMMTTLGYFTCGFRVVLMHTFEEKLFLQSLQDYKVESALLVPSLMAFLAKSALVEKYDFPHLKEIASGGWPLSKEIGEMVKKRFKLNFVRQGMGLSETTSAILITPRGDAKPGSTGKIVPLHAVKVVDPTTGKILGPNEPGELYFKGPMIMKGYYNNEEATKAIIDNDGWLRSGDIAYYDNDGHFYIVGRRKSLIKYKGYQVAPAEIEGILLQHPYIVDAGVTGIPDEAAGELPAAGVVVQTGKYLNEQIVQDYVASQVSTAKWLRGGVKFLDEIPKGSTGKIDRKVLRQMLEKHTNGHHHHHHHH
Regarding B1, the “Vmax (RLU) D/L-luciferin BrightGlo Buffer” value in data set [1] is 796,344 RLU. Besides, the “Vmax (RLU) D/L-luciferin Detection Reagent Buffer” value in data set [1] is on record as 173,238 RLU. In addition, the Km in data set [2] (BrightGlo Buffer) amounted to 7.16 µM; in data set [2] (Detection Reagent Buffer), 116 µM; in data set [4] (BrightGlo Buffer) it was 9.12 µM; in data set [4] (Detection Reagent Buffer), 1210 µM; in data set [6] (BrightGlo Buffer), 0.0613 µM; in data set [6] (Detection Reagent Buffer), 0.373 µM. The “Vmax (RLU)” value in data set [2] (BrightGlo Buffer) was 793,473 RLU; in data set [2] (Detection Reagent Buffer), 174,991 RLU; in data set [4] (BrightGlo Buffer), 378,264 RLU; in data set [4] (Detection Reagent Buffer), 21,620 RLU; in data set [6] (BrightGlo Buffer) it was 1,244,361 RLU; in data set [6] (Detection Reagent Buffer), 144,242 RLU. The “Vmax (RLU) CS0333 BrightGlo Buffer” value in data set [3] was 828,634 RLU. Also, in data set [3], the “Vmax (RLU) CS0333 Detection Reagent Buffer” value is 377,642 RLU. The “Vmax (RLU) CS0280 BrightGlo Buffer” value in data set [5] was 753,523 RLU. In data set [5], the “Vmax (RLU) CS0280 Detection Reagent Buffer” value is 16,392 RLU.

B2: MK0158: SEQ ID NO: 123; H244W+S193A+N228D+L305F+S306P+I109V+C38R+F55I+Y108F+A316W+Y339M+T342S+V348I+C257R+T284A+S313T+K353R+D435G (protein)
chain: MADKNILYGPEPFYPLEDGTAGEQMFDALSRYAAIPGRIALTNAHTKENVLYEEILKLSCRLAESFKKYGLKQNDTIAVCSENSLQFFLPVIASLYLGIIVAPVNDKFVERELIHSLGIVKPRIVFCSKNTFQKVLNVKSKLKSIETIIILDLNEDLGGYQCLNNFISQNSDSNLDVKKFKPYSFNRDDQVAAIMFSSGTTGLPKGVMLTHKNIVARFSIAKDPTFGDAINPTSAILTVIPFHWGFGMMTTLGYFTRGFRVVLMHTFEEKLFLQSLQDYKVESTLLVPSLMAFLAKSALVEKYDFPHLKEIATGGWPLSKEIGEMVKKRFKLNFVRQGMGLSETTSAILITPKGDAKPGSTGKIVPLHAVKVVDPTTGKILGPNEPGELYFKGPMIMKGYYNNEEATKAIIDNDGWLRSGDIAYYDNDGHFYIVGRRKSLIKYKGYQVAPAEIEGILLQHPYIVDAGVTGIPDEAAGELPAAGVVVQTGKYLNEQIVQDYVASQVSTAKRLRGGVKFLDEIPKGSTGKIDRKVLRQMLEKHTNGHHHHHHHH
As to B2, the “Vmax (RLU) D/L-luciferin BrightGlo Buffer” value in data set [1] is 3,261,120 RLU. Moreover, the “Vmax (RLU) D/L-luciferin Detection Reagent Buffer” value in data set [1] is 1,086,510 RLU. For the same molecule, the Km was determined as 14.6 µM in data set [2] (BrightGlo Buffer); 20.8 µM in data set [2] (Detection Reagent Buffer); 2.94 µM in data set [4] (BrightGlo Buffer); 568 µM in data set [4] (Detection Reagent Buffer); 0.109 µM in data set [6] (BrightGlo Buffer); 0.451 µM in data set [6] (Detection Reagent Buffer). For the same molecule, the “Vmax (RLU)” value in data set [2] (BrightGlo Buffer) is on record as 1,546,728 RLU; in data set [2] (Detection Reagent Buffer), 524,381 RLU; in data set [4] (BrightGlo Buffer) it was 426,927 RLU; in data set [4] (Detection Reagent Buffer), 39,068 RLU; in data set [6] (BrightGlo Buffer), 2,509,334 RLU; in data set [6] (Detection Reagent Buffer), 365,701 RLU. Further, the “Vmax (RLU) CS0333 BrightGlo Buffer” value in data set [3] is 4,043,790 RLU. Further, the “Vmax (RLU) CS0333 Detection Reagent Buffer” value in data set [3] was 1,508,370 RLU. Moreover, the “Vmax (RLU) CS0280 BrightGlo Buffer” value in data set [5] is listed as 1,523,240 RLU. Also, the “Vmax (RLU) CS0280 Detection Reagent Buffer” value in data set [5] is 41,712 RLU.

B3: MK0159: SEQ ID NO: 124; H244W+S193A+N228D+L305F+S306P+I109V+C38R+F55I+Y108F+A316W+Y339M+T342S+V348I+T284A+T289S+S313T+W510R (protein)
chain: MADKNILYGPEPFYPLEDGTAGEQMFDALSRYAAIPGRIALTNAHTKENVLYEEILKLSCRLAESFKKYGLKQNDTIAVCSENSLQFFLPVIASLYLGIIVAPVNDKFVERELIHSLGIVKPRIVFCSKNTFQKVLNVKSKLKSIETIIILDLNEDLGGYQCLNNFISQNSDSNLDVKKFKPYSFNRDDQVAAIMFSSGTTGLPKGVMLTHKNIVARFSIAKDPTFGDAINPTSAILTVIPFHWGFGMMTTLGYFTRGFRVVLMHTFEEKLFLQSLQDYKVESALLVPSLMAFLAKSALVEKYDFPHLKEIATGGWPLSKEIGEMVKKRFKLNFVRQGMGLSETTSAILITPRGDAKPGSTGKIVPLHAVKVVDPTTGKILGPNEPGELYFKGPMIMKGYYNNEEATKAIIDNDGWLRSGDIAYYDNDGHFYIVGRRKSLIKYKGYQVAPAEIEGILLQHPYIVDAGVTGIPDEAAGELPAAGVVVQTGKYLNEQIVQDYVASQVSTAKRLRGGVKFLDEIPKGSTGKIDRKVLRQMLEKHTNGHHHHHHHH
For the molecule B3, in data set [1], the “Vmax (RLU) D/L-luciferin BrightGlo Buffer” value was 688,326 RLU. The “Vmax (RLU) D/L-luciferin Detection Reagent Buffer” value in data set [1] is 106,195 RLU. The Km in data set [2] (BrightGlo Buffer) is 14.7 µM; in data set [2] (Detection Reagent Buffer), 20.9 µM; in data set [4] (BrightGlo Buffer) it was 2.78 µM; in data set [4] (Detection Reagent Buffer), 602 µM; in data set [6] (BrightGlo Buffer) it was 0.107 µM; in data set [6] (Detection Reagent Buffer), 0.444 µM. Also, the “Vmax (RLU)” value in data set [2] (BrightGlo Buffer) is recorded as 1,528,708 RLU; in data set [2] (Detection Reagent Buffer), 523,610 RLU; in data set [4] (BrightGlo Buffer) it was 439,625 RLU; in data set [4] (Detection Reagent Buffer), 40,925 RLU; in data set [6] (BrightGlo Buffer), 2,363,790 RLU; in data set [6] (Detection Reagent Buffer) it was 369,822 RLU. The “Vmax (RLU) CS0333 BrightGlo Buffer” value in data set [3] is 6,850,630 RLU. Further, the “Vmax (RLU) CS0333 Detection Reagent Buffer” value in data set [3] was 4,630,740 RLU. Besides, in data set [5], the “Vmax (RLU) CS0280 BrightGlo Buffer” value is listed as 2,094,150 RLU. Further, the “Vmax (RLU) CS0280 Detection Reagent Buffer” value in data set [5] is given as 110,050 RLU.

B4: MK0157: SEQ ID NO: 122; H244W+S193A+N228D+L305F+S306P+I109V+C38R+F55I+Y108F+A316W+Y339M+T342S+V348I+T284A+T289S+K353R+D435G+L437R (protein)
chain: MADKNILYGPEPFYPLEDGTAGEQMFDALSRYAAIPGRIALTNAHTKENVLYEEILKLSCRLAESFKKYGLKQNDTIAVCSENSLQFFLPVIASLYLGIIVAPVNDKFVERELIHSLGIVKPRIVFCSKNTFQKVLNVKSKLKSIETIIILDLNEDLGGYQCLNNFISQNSDSNLDVKKFKPYSFNRDDQVAAIMFSSGTTGLPKGVMLTHKNIVARFSIAKDPTFGDAINPTSAILTVIPFHWGFGMMTTLGYFTRGFRVVLMHTFEEKLFLQSLQDYKVESALLVPTLMAFLAKSALVEKYDFPHLKEIATGGWPLSKEIGEMVKKRFKLNFVRQGMGLSETTSAILITPRGDAKPGSTGKIVPLHAVKVVDPTTGKILGPNEPGELYFKGPMIMKGYYNNEEATKAIIDNDGWLRSGDIAYYDNDGHFYIVGRLKSLIKYKGYQVAPAEIEGILLQHPYIVDAGVTGIPDEAAGELPAAGVVVQTGKYLNEQIVQDYVASQVSTAKWLRGGVKFLDEIPKGSTGKIDRKVLRQMLEKHTNGHHHHHHHH
As to B4, in data set [1], the “Vmax (RLU) D/L-luciferin BrightGlo Buffer” value is reported as 573,187 RLU. The “Vmax (RLU) D/L-luciferin Detection Reagent Buffer” value in data set [1] is 75,012 RLU. For the same molecule, the Km in data set [2] (BrightGlo Buffer) worked out at 4.51 µM; in data set [2] (Detection Reagent Buffer), 18.7 µM; in data set [4] (BrightGlo Buffer) it was 4.49 µM; in data set [4] (Detection Reagent Buffer), 631 µM; in data set [6] (BrightGlo Buffer) it was 0.1 µM; in data set [6] (Detection Reagent Buffer), 0.27 µM. The “Vmax (RLU)” value is listed as 2,835,770 RLU in data set [2] (BrightGlo Buffer); 515,775 RLU in data set [2] (Detection Reagent Buffer); 951,258 RLU in data set [4] (BrightGlo Buffer); 87,011 RLU in data set [4] (Detection Reagent Buffer); 590,903 RLU in data set [6] (BrightGlo Buffer); 32,485 RLU in data set [6] (Detection Reagent Buffer). Further, the “Vmax (RLU) CS0333 BrightGlo Buffer” value in data set [3] is reported as 4,827,260 RLU. Moreover, in data set [3], the “Vmax (RLU) CS0333 Detection Reagent Buffer” value is 3,810,820 RLU. In addition, the “Vmax (RLU) CS0280 BrightGlo Buffer” value in data set [5] is 3,598,730 RLU. The “Vmax (RLU) CS0280 Detection Reagent Buffer” value in data set [5] is on record as 159,336 RLU.

The record behind these values is patent US12545899B2, “Luciferase enzymes for use with thermostable luciferins in bioluminescent assays” (Promega Corporation, priority 2018, dated 2026).
